{"source": "paper PMC6071530", "about": "(2018)", "target": "ERBB2 (Homo sapiens (Human), UniProt P04626)", "assay": "SPR (ErbB-Fc on chip, avid)", "data": [{"binder": "S100A4 (protein) chain 1: not shown chain 2: not shown", "values": [{"measurement": "Kd", "result": "> 1.25", "unit": "µM"}]}]}
